Laboratory results reported in patent US20150020238.

Biological target: EGFP-hTNF-α fusion protein comprising the enterokinase-recognizing sequence, P01375
Sequence (P01375 other isoform, or with tags, fused parts or gaps): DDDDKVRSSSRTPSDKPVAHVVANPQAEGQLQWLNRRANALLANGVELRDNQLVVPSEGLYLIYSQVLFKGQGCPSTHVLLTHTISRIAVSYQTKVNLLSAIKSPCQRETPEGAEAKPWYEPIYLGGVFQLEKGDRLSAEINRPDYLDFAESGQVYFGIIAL

B1: human enterokinase light chain protein produced in transformed rice suspension cells (protein)
chain: IVGGSNAKEGAWPWVVGLYYGGRLLCGASLVSSDWLVSAAHCVYGRNLEPSKWTAILGLHMKSNLTSPQTVPRLIDEIVINPHYNRRRKDNDIAMMHLEFKVNYTDYIQPICLPEENQVFPPGRNCSIAGWGTVVYQGTTANILQEADVPLLSNERCQQQMPEYNITENMICAGYEEGGIDSCQGDSGGPLMCQENNRWFLAGVTSFGYKCALPNRPGVYARVSRFTEWIQSFLH
endopeptidase activity: exhibited the activity of the human enterokinase light chain protein, i.e., recognizing and cleaving the DDDDK amino acid sequence
